Molecular target: T1, human alpha2-macroglobulin (a2M) (human, UniProt P01023 24-1474)
T1 construct: human alpha2-macroglobulin bought from Biodesign; source: bought: Biodesign, MD, USA
T1 sequence (looked up): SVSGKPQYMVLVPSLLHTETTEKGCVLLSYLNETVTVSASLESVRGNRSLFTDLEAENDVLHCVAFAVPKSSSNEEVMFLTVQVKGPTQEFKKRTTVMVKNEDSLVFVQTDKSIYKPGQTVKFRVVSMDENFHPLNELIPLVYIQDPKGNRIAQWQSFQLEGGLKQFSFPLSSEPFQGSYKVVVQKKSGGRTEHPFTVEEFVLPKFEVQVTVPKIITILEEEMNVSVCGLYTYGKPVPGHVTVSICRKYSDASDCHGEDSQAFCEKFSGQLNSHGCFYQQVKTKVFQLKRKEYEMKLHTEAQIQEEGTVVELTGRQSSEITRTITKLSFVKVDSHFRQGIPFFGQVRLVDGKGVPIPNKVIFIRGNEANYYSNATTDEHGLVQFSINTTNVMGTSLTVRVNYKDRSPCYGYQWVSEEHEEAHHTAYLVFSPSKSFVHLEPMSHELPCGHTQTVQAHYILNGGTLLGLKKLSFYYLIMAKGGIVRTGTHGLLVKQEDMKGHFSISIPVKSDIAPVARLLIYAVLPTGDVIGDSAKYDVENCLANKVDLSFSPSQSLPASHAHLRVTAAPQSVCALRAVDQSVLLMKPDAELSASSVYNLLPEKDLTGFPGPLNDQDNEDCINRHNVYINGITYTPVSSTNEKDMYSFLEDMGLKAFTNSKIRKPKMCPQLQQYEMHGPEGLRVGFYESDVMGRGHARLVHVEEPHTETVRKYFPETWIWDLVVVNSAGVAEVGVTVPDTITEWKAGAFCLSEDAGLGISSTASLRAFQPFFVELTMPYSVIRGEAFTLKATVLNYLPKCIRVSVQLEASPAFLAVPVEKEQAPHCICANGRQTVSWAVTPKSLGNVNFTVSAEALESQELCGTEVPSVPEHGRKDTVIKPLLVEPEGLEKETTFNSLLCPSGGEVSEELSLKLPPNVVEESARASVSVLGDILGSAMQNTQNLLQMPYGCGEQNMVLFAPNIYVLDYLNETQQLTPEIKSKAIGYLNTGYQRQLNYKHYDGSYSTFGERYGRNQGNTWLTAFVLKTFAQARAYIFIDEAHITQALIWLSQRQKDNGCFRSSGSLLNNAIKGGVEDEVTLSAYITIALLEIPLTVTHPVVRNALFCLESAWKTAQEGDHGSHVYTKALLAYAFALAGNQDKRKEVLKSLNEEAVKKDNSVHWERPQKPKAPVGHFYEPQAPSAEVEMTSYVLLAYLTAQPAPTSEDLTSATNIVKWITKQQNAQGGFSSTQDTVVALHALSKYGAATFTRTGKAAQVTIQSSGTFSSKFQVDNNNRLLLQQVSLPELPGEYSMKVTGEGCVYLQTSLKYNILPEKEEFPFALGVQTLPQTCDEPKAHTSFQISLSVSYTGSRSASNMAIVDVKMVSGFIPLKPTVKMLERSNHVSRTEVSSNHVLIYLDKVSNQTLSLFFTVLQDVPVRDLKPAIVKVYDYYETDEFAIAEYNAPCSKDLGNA
Experiment: loss of PSA immunoreactivity after incubation; human a2M incubated with twofold molar excess of PSA for 4 h at 37 C, used without further purification; PSA concentration determined before and after incubation
Settings: both partners purified

binding result: binds
B1: prostate-specific antigen (PSA) (enzyme)
chain: not shown
notes: human prostate-specific antigen (PSA), 32 to 33-kDa single-chain glycoprotein from seminal plasma; the preparation also holds 'nicked' (internally cleaved) forms; also called F-PSA; free PSA; source: purified from pooled seminal plasma from healthy volunteers (ion-exchange chromatography and gel chromatography); also used unpurified in seminal plasma
